Assay results: patent publication US20110217305A1 (SYMPHOGEN A S, published 2011)

Target: T1, Fc-conjugated HER2 (HER2-Fc), R&D Systems cat. No 1129-ER (human, UniProt P04626 23-652)
T1 construct: Bought reagent; Captured on an anti-Fc surface in the SPR binning; also called rhHER2; HER2 protein (R&D Systems cat.#1129-ER); not shown: Fc part of the bought fusion protein
Test: SPR epitope binning (ProteOn XPR36), HER2-Fc captured via anti-Fc; competitor 4387; class limits for the pair

B1: antibody 4382 (antibody, human IgG1, kappa, V domains shown)
VH: EVQLQQSGPELVKPGASVKISCTASGYTFTDYYMNWVKQSHGKSLEWIGDINPNNGGTNYNQKWKGKATLTIHKSSSTAYMELRSLTSEDSAVYFCVPGGLRSYFDYWGQGTTLTVSS
VL: DIVMTQSLKFMSASVGDRVSITCKASQDVSAAVAWYQQKPGQSPELLIYWASTRHTGVPDRFTGSGSGTDYTLTISSVQAEDLALYYCQQHYTTPPTFGGGTKLEIKR
notes: Chimeric murine/human IgG1 kappa
- % inhibition: 25 to 50%
